The data set can be described thus: soluble on expression in E. coli; label from the status in PepcDB or PDB records.
Turning to “MGSDKIHHHHHHMKLDINICNNIKSIRTRLGMSQQDLANIAGVTRQTISGVESGQYAPSVAITLRLAKALGCQVENLFWLEDDLPEIEAVLAKPVPTGQQLRVSLAKVGGQWIAYPLVGKEAFRMEMIPADGRAESQTHTNKVQVRLLDDLDKLQNTVVIAGCTPVISFLARATERWHPQLRVHYHFANSMAALRSLNRGEVHIAGMHLYDPQTGEHNIPFAREALDGRSAVLITLGIWEEGLVVAPGNPMEIKSLSDLVELEATIINREPGSGSRMLLERKLKEEKVSANTIKGYEHIVHSHQDVALSIAAGIADAGVSTASVAAAFGLGFIPLHQARYDLVILKEYLEEAPVQQFLSILGHRLVQSQLEVLGGYDISDIGEVVATI”, the “soluble on expression in E. coli” value is listed as “not soluble”.

“MCPGVMGVGSTQSIVLVPGFPKPSTMNVQWKAEGAASQKDASTHKDWSSQVSSITCKPEKPETLPLGHFINGDFIVIIPAGGRALLSATGNAL”: the “soluble on expression in E. coli” value is listed as “not soluble”. As for “MSLNNIMKVVIIGAGPAGVYSALTLSKHAKVTLIEREEKLGGTCVLYGCIPTKSILSQLIISRQASNMSLNTLREYALTSINTISKSLEHLLNSHGIEVIHANGFLRSSMVHASNTSLAADKVLVSTGTRRERLGKVKFTEDLAYTNEDYNKVVIVGGDAGGIELGWMMKKLGKEVHLIDKNDLLLQNIDRTLSEIVTNFLSQIGIKLYLGKKVSKIDETSVTLEDNQKISGDAVFVTFGRKPNIEGFEEIPHEKYIYVDEYLRTQIPNIYAAGDIIGTFTAHEAIYAGIIAAKNMLGEKREFIVEGIPKVIYIYPQIAYVGTTNGNCVTFNTLNLTRTIVERESEGFLKICERDNRVIGAVAFMPYAEDVISLISVLIRYQISLKDTIDLVMPHPSYLEAITEALNMLQSKGEGHHHHHH”, the entry is “not soluble”. As for “MSIHSASPIIRRKSRKIWVGNVPVGGDAPIAVQSMTNTETCDVAATVAQIRRLEDAGADIVRVSVPDMDAAEAFGKIKQQVNVPLVADIHFDYRIALRVAELGVDCLRINPGNIGREDRVKAVVDAARERNIPIRIGVNAGSLEKDLQKKYGEPTPEALLESAMRHVDHLDKLDFQNFKVSVKASDVFMAVAAYRLLARQIEQPLHLGITEAGGLRSGTVKSAVGLGMLLAEGIGDTIRISLAADPVEEIKVGFDILKSLHLRSRGINFIACPSCSRQNFDVVKTMNELEGRLEDLLVPMDVAVIGCVVNGPGEAKEAHVGLTGGTPNLVYIDGKPSQKLTNDNLVDELERLIRQKAAEKAEADASLIARG”, the entry is “not soluble”; as for “MDVHIDNQVLSGLGTPLLVHLFVPDTVMAELCPNRVPNCEGAWCQTLFSDRTGLTRVCRVFAARGMLPGRPSHRGTFTSVPVYCDEGLPELYNPFHVAALRFYDEGGLVGELQIYYLSLFEGAKRALTDGHLIREASGVQESAAAMQPIPIDPGPPGGAGIEHMPVAAAQVEHPKTYDLKQILLEITQEENRGEQRLGHAGSPALCLGLRLRAGAETKAAAETSVSKHHPALENPSNIRGSAGGEGGGGRAGTGGTVGVGSGALSRVPVSFSKTRRAIRESRALVRGIAHIFSPHALYVVTYPELSAQGRLHRMTAVTHASPATDLAEVSILGAPEREFRFLISVALRISASFREKLAMQAWTAQQEIPVVIPTSYSRIYKNSDLIREAFFTVQTRVSWESCWVKATISNAPKTPDACLWIDSHPLYEEGASAWGKVIDSRPPGGLVGAASQLVALGTDGHCVHLATTSDGQAFLVLPGGFVIKGQLALTPEERGYILARHGIRREQ”, “not soluble”. On to “MKHKTKILHLKNGYDLWGASFGDPNSPIKILALHGGPGDDADEFIVWADQLKKFARIDAEVFVYEQLGSFHSESPDFSKKENVDNYLNYNYYINEVEEVRQLFDLDNFYLAGHSWGGILAYEYMLRSEYRQHLKAGIVFSMNDNIDDYVKQINKELLDMFGEQEFKYMKRIETSGDFSQKHYHQNLIELYKEHLNRDPNYNPDDGMKMMAEDVYHHFQGNNEFVVTGEMKNWNVSSRLPEFDIPVLETVGEFDTMSVESAKRSARKLPRGRFALTENGGHSHAQDHPKEFFEHLGSFIKDVKAGNV”, for which the “soluble on expression in E. coli” value was “not soluble”.

“MGSDKIHHHHHHMSLSRNSDLHMHSTASDGGYSPTELMEKCHQANLKFVALTDHDTVNGIEEAKQTAHRLGFILIPGIELSTKASGQSVHMLGYGIDWKNDTLKRRLDRQQDIRKQRLEQILLKLKAAGVPLEQDAVLRYADGGAIGRPHVAKALMDKGYVRSVQEAFEHYLAEGRPCYVKRQEYISVEQAIAWIHQAGGVAIVAHPGYYDLDDQLIGWVREYGLDGIEVYHRDHSREVVAHYEQLCKRMEAETGRRLLRTGGSDFHHESYGRTAAPLGTTRIPDQLTYELLHDLERKKTRA”: the “soluble on expression in E. coli” value is reported as “not soluble”.

Turning to “MGSDKIHHHHHHMKEQNNIPTSKVERATKFVQTGAKIGGNYIKHYAKKAFNPELTKEQLHEDNSKDVYETLSQLKGSALKVAQMLSQDKNMLPQAYVDKFTMAQYSAPPLSYPLVVKTFQKYFGKSPESMFDTFERNASNAASIGQVHKATKDGKVFAVKIQYPGVAESVSSDLKLVKPFALRLMNMKEKDLDMYMDEVESKLIEETDYELELRRSNEISTQCAHITGLVFPAYYPEYSSKRILTMDWLEGLHMKEFLATNPSQEIRNQIGQLLWDFYDFQMHQLRTVHADPHPGNFLMRSNGSLGVIDFGCVKEIPEEFYTEYFKLLNKEVIEDKTELLKTFERLNFFDAEDTALQREIFFDLFCEMTHLLGLPFYSETFDFSDDSYFKRIYDFGEHISNVKEIKDARQARGSRHGIYINRTYFGLYNLLNQLGANVRTKSYGEVAIEV”, the “soluble on expression in E. coli” value is reported as “not soluble”. As for “SPVTKCPRKVEPPWKGWDRKAQKNGLRHQVFAVNGDHYVGEWKGNLKHGKGTQVWKKSGAVYEGDWKFGKRDGYGSLSHPDPETGKLRRVYSGWWKGDKKSGYGIQFFGPKEYYEGEWCNNQRSGWGRMYYNNGDIYEGQWQNDKPEGEGMLRLKNGNRYEGIWERGMKNGHGRFFHLDHGQLFEGYWVDNVAKCGTMIDFGRDEAPEPTQFPIPKVEILDPDGVLKEALDKLMKPEEEEG”, the entry is “soluble”; as for “MQVEVGQIVNTHGIKGEVKVKSNSDFTDTRFQPGEVLTVNHQNHEEQLTVLSYRVHKGFHMLKFEGINNINDVEQYKGDYLYQERDHEDIELAENEYYYSDIIGSTVFDNDNQPIGRVINIFETGANDVWVVKGEKEYLIPYIADVVKEIDIENKTIRITPMEGLLDLEHHHHHH”, “soluble”; as for “MGSDKIHHHHHHMMAEALQRENPSGFEGSVAGLPLTDVIQLKGQNRFSGCIAVEYRERQGMIFFRDGDIIHAEQGKLMGEMALYEIIRWPGGRFNIQPKVTTTSRTIQQSISFLLLEAHRLMDEEQAAVRADEGTRREEAAAPAAVQNRMSAVAERIVRIAGVSYAVLMKKDGTPLEDDSFEAEVLSAKGMSLAGIGSRLGELFGLDEVKSAAVHARGKQILLFEAKNHYVSIAVRGDSSLAHVENEIRSTFAGRK”, “not soluble”.

As to “HHHHHHTNEAYLAHERRELEAKRNQLRDEVDRTKTHMQDEAANDPNWFDITAQLWEFSQELRNRDREEKLIKKIEQTLKKVENED”, the “soluble on expression in E. coli” value was “soluble”. As for “VTPYEDLLRFVLETGTPKSDRTGTGTRSLFGQQMRYDLSAGFPLLTTKKVHFKSVAYELLWFLRGDSNIGWLHEHGVTIWDEWASDTGELGPIYGVQWRSWPAPSGEHIDQISAALDLLRTDPDSRRIIVSAWNVGEIERMALPPCHAFFQFYVADGRLSCQLYQRSADLFLGVPFNIASYALLTHMMAAQAGLSVGEFIWTGGDCHIYDNHVEQVRLQLSREPRPYPKLLLADRDSIFEYTYEDIVVKNYDPHPAIKAPVAV”, the entry is “not soluble”; as for “MSLGSGSGLSYNAGITQDNFLGMGSSLGLNGSRNTDSTNVNLSYTEPYFTKDGVSLGGNIFYEDYDNSARKASAAYKRKTYGASGTLGFPVDENNSYYLGLGYTHDKLRNVEREYTREKYVNSMKFPINPQNSHYDRIQSADFDLSFGWNYNNLNRGYFPTAGSSANISGKLTLPGSDNKYYQVGTNFSGYIPLNSEHKWVIATKGGLAYTNSFGGKEVPFYQLYSAGGMGSLRGFAGGSIGPKAIYYREDGFKAPSQDVIGGNAMVNASLELIIPAPFISDKYQHNVRTSVFVDAATVWNTKWKQSKADYPNLPDFGDYKRVRASAGIALQWQSPIGPLSFSYAKPIKKYAGDEIEQFQFTVGSTFEGHHHHHH”, “not soluble”. In the case of “MGSDKIHHHHHHMTAALPAGSDLVIVLPHLGPGGAQKVALMAAEHFLVQGRQVTLVTLLPDKPLSHAVPEGLRWVDLGPAVAETTSNRAPIARIWRFSCTWGRRSLAWISLVIGWKVLKRLVPGQAPLFVQWLVSSASGVQATLLRDLLYAGKPARVLSLLTRTNLLCCQAMWALPGHLVVSERNDPRLQKQSFPWLRLRSWLWQRADVITANTIGVLEGLQHCHPAMADDMRLLPNPLVVDSHPGNHSDEPASGTCFLAVCRLVPQKGIDLLIQAYAQLPEPLREMWPLLIAGDGPERASLETLASSLLPRGQVRFMGFQRNPQVLYHRDAVFVLSSRFEGMPNSLLEAMGSGLAVIVSDASPGPLEVVVHGKSGWVVPTEKVTLLAEAMQAMAENPALRCRLGDAAAEFMDAYSWDTLDPIWSDILCLEKPG”, the “soluble on expression in E. coli” value is on record as “not soluble”. For the sequence “GMSAQAKNKLEALKAMTTVVADTGDIEAIKQFKPVDATTNPSLILKAAKLANYQHLIEEAIDWALQIKGNDKNSQTTLENVGDKLAVNIGCEVLTSIPGVISTEVDARLSFDTQATVAKARKLIRLYQDAGIDSDRILIKIASTWEGIQAAKILEAEGIHCNLTLLFHFAQAQACAEAGTTLISPFVGRILDWYKANSGQSEYSASEDPGVVSVTEIYNFYKSHGFKTIVMGASFRNTGEIEELAGCDRLTISPELLAQLEADTSPLEQKLFPIKETKDTPELLTEASFRWAMNNDPMAHDKLADGIRRFAADQVTLESMLSKKISQRS”, the “soluble on expression in E. coli” value is “soluble”. In the case of “MGHHHHHHSHKPGLSTSIPLRMSSYTFKRPVTRITPHPGNEVRYHQWEESLEKPQQVCWQRRLQGLQAYSSAGELSSTLDLANTLQKLVPSYTGGSLLEDLASGLEHSCPMPHLACSSDAVEIIPAEGVGISQLLCKQFLVTEEDIRKQEGKVKTVRERLAIALIADGLANEAEKVRDQEGCPEKR” it was “not soluble”; in that of “MVAESNSAVAPTANVATSPAHEHFVRVNGGHFELQGKPYVITGVNMWYAAYLGAPNEVGDRDRLAKELDNLKAIGVNNLRVLAVSEKSEINSAVKPAVTNGFGNYDETLLQGLDYLLVELAKRDMTVVLYFNNFWQWSGGMTQYMAWIEGEPVQDPNVTNEWEAFMAKSASFYRSEKAQQEYRKTLEKIITRVNSINGKAYVDDATIMSWQLANEPRPGNSQTTAEEKQIYIDWVHAAAAYIKTLDAHHLVSSGSEGEMGSVNDMQVFIDAHATPDIDYLTYHMWIRNWSWFDKTKPAETWPSAWEKAQNYMRAHIDVAKQLNKPLVLEEFGLDRDMGSYAMDSTTEYRDNYFRGVFELMLASLEQGEPSAGYNIWAWNGYGRTTRANYWWQEGDDFMGDPPQEEQGMYGVFDTDTSTIAIMKEFNARFQPKLEHHHHHH”, “soluble”. Regarding “MGSDKIHHHHHHMALGHRVKEAREFRSLKQGELAELIGWTQQALSTLENRDSKKSSYSAQISKALDIDIDWLISGAGEMINTKKEAKSAKKLIKYVPVKGSAQMGDNGFWSELDYMGAGGDGYLEVNNASDSAYVIRAVGDSMFPAIRSGWYIVFDPSREACSGEYVHIVLKDGRNMVKEYVSCQHGIVNLISVNGMERISFNCEDVDVLNPFVEIQPPSRLRDDLDLFDTKCEEM”, the “soluble on expression in E. coli” value was “not soluble”.

The record behind these values is the DeepSol protein solubility set.
